From patent US20160355553A1 (Janssen / Centocor, published 2016)

Experiments:
FL4-06 B-m2-CL1+5-GCN4a = target: T1, FL4-06 B-m2-CL1+5-GCN4a (influenza B virus, UniProt P03461 6-574); test: FACS, transfected cells
T1 chain: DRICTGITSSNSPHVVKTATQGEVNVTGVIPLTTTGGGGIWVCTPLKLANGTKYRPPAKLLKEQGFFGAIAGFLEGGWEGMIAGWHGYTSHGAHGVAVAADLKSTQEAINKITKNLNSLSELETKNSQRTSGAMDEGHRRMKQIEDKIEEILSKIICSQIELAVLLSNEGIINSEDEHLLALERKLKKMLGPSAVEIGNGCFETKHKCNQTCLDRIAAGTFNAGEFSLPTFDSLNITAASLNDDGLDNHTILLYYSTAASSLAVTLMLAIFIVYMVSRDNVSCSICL

[1] = target: hemagglutinin of influenza virus A/Brisbane/59/2007 (H1) (influenza A virus H1N1, UniProt B4URD6 18-565); test: cell-based or functional assay
[2] = target: hemagglutinin of influenza virus A/Env/MPU3156/05 (H2) (influenza A virus H2); test: cell-based or functional assay
[3] = target: hemagglutinin of influenza virus A/EW/MPF461/07 (H5) (influenza A virus H5); test: cell-based or functional assay
[4] = target: hemagglutinin of influenza virus A/EW/MPD411/07 (H6) (influenza A virus H6); test: cell-based or functional assay
[5] = target: hemagglutinin of influenza virus A/EW/MPH571/08 (H8) (influenza A virus H8); test: cell-based or functional assay
[6] = target: hemagglutinin of influenza virus A/Hong Kong/1073/99 (H9) (influenza A virus H9); test: cell-based or functional assay
[7] = target: hemagglutinin of influenza virus A/Ck/HK/SSP176/09 (H9) (influenza A virus H9); test: cell-based or functional assay
[8] = target: hemagglutinin of influenza virus A/Hong Kong/1/68 (H3) (influenza A virus H3N2, UniProt Q91MA7 17-566); test: cell-based or functional assay
[9] = target: hemagglutinin of influenza virus A/Johannesburg/33/94 (H3) (influenza A virus H3); test: cell-based or functional assay
[10] = target: hemagglutinin of influenza virus A/Panama/2007/1999 (H3) (influenza A virus H3); test: cell-based or functional assay
[11] = target: hemagglutinin of influenza virus A/Hiroshima/52/2005 (H3) (influenza A virus H3); test: cell-based or functional assay
[12] = target: hemagglutinin of influenza virus A/Brisbane/10/2007 (H3) (influenza A virus H3); test: cell-based or functional assay
[13] = target: hemagglutinin of influenza virus A/WF/MPA 892/06 (H4) (influenza A virus H4); test: cell-based or functional assay
[14] = target: hemagglutinin of influenza virus A/Chick/Germany/N/49 (H10) (influenza A virus H10); test: cell-based or functional assay
[15] = target: mini1 cluster11 (A/Brisbane/59/2007) (influenza A virus H1N1, UniProt A8C8J4 18-565); test: FACS on HEK293F
[16] = target: mini2 cluster11 (A/Brisbane/59/2007) (influenza A virus H1N1, UniProt A8C8J4 18-565); test: FACS on HEK293F
[17] = target: mini3 cluster11 (A/Brisbane/59/2007) (influenza A virus H1N1, UniProt A8C8J4 18-565); test: FACS on HEK293F
[18] = target: mini4 cluster11 (A/Brisbane/59/2007) (influenza A virus H1N1, UniProt A8C8J4 18-565); test: FACS on HEK293F
[19] = target: mini1 cluster11+5 (A/Brisbane/59/2007) (influenza A virus H1N1, UniProt A8C8J4 18-565); test: FACS on HEK293F
[20] = target: mini2 cluster11+5 (A/Brisbane/59/2007) (influenza A virus H1N1, UniProt A8C8J4 18-565); test: FACS on HEK293F
[21] = target: mini3 cluster11+5 (A/Brisbane/59/2007) (influenza A virus H1N1, UniProt A8C8J4 18-565); test: FACS on HEK293F
[22] = target: mini4 cluster11+5 (A/Brisbane/59/2007) (influenza A virus H1N1, UniProt A8C8J4 18-565); test: FACS on HEK293F
HK68 H3m2-cl9+10+12 = HK68 H3m2-cl9+10+12 (influenza A virus H3N2, UniProt Q91MA7 17-566); test: FACS on HEK293F [D00014 FIG. 10B]
HK68 H3m2-cl9+10+11+13 = HK68 H3m2-cl9+10+11+13 (influenza A virus H3N2, UniProt Q91MA7 17-566); test: FACS on HEK293F [D00014 FIG. 10B]
[23] = target: HK68 H3m2-cl9+10+11+12-tri (influenza A virus H3N2, UniProt Q91MA7 17-566); test: FACS on HEK293F [D00014 FIG. 10B]
[24] = target: HK68 H3m2-cl9+10+11+13-tri (influenza A virus H3N2, UniProt Q91MA7 17-566); test: FACS on HEK293F [D00014 FIG. 10B]
[25] = target: HK68 H3m2-cl9+10+11+12-GCN4 (influenza A virus H3N2, UniProt Q91MA7 17-566); test: FACS on HEK293F [D00014 FIG. 10B]
[26] = target: H3 Full-length A/Hong Kong/1/1968 (influenza A virus H3N2, UniProt Q91MA7 17-566); test: FACS on HEK293F [D00014 FIG. 10B]

B1: CR9114 (antibody, V domains shown)
VH: QVQLVQSGAEVKKPGSSVKVSCKSSGGTSNNYAISWVRQAPGQGLDWMGGISPIFGSTAYAQKFQGRVTISADIFSNTAYMELNSLTSEDTAVYFCARHGNYYYYSGMDVWGQGTTVTVSS
VL: SYVLTQPPAVSGTPGQRVTISCSGSDSNIGRRSVNWYQQFPGTAPKLLIYSNDQRPSVVPDRFSGSKSGTSASLAISGLQSEDEAEYYCAAWDDSLKGAVFGGGTQLTVL
FL4-06 B-m2-CL1+5-GCN4a
  binding result: no binding
[1]
  virus neutralization assay on MDCK cells, geomean IC50: 2.6 µg/mL
[2]
  virus neutralization assay on MDCK cells, geomean IC50: 8.8 µg/mL
[3]
  virus neutralization assay on MDCK cells, geomean IC50: 10.5 µg/mL
[4]
  virus neutralization assay on MDCK cells, geomean IC50: 10.5 µg/mL
[5]
  virus neutralization assay on MDCK cells, geomean IC50: 8.8 µg/mL
[6]
  virus neutralization assay on MDCK cells, geomean IC50: 4.4 µg/mL
[7]
  virus neutralization assay on MDCK cells, geomean IC50: 6.3 µg/mL
[8]
  virus neutralization assay on MDCK cells, geomean IC50: 19 µg/mL
[9]
  virus neutralization assay on MDCK cells, geomean IC50: 21.9 µg/mL
[10]
  virus neutralization assay on MDCK cells, geomean IC50: 39.9 µg/mL
[11]
  virus neutralization assay on MDCK cells, geomean IC50: 12.5 µg/mL
[12]
  virus neutralization assay on MDCK cells, geomean IC50: 5.6 µg/mL
[13]
  virus neutralization assay on MDCK cells, geomean IC50: 0.8 µg/mL
[14]
  virus neutralization assay on MDCK cells, geomean IC50: 15.7 µg/mL

B2: CR8057 (antibody, V domains shown)
VH: EVQLVESGGGLVQPGGSLRLSCAASGFTDSVIFMSWVRQAPGKGLECVSIIYIDDSTYYADSVKGRFTISRHNSMGTVFLEMNSLRPDDTAVYYCATESGDFGDQTGPYHYYAMDV
VL: QSALTQPASVSGSPGQSITISCTGSSGDIGGYNAVSWYQHHPGKAPKLMIYEVTSRPSGVSDRFSASRSGDTASLTVSGLQAEDEAHYYCCSFADSNILI
[15]
  binding result: no binding (tested: 5 ug/ml)
[16]
  binding result: no binding (tested: 5 ug/ml)
[17]
  binding result: no binding (tested: 5 ug/ml)
[18]
  binding result: no binding (tested: 5 ug/ml)
[19]
  binding result: no binding (tested: 5 ug/ml)
[20]
  binding result: no binding (tested: 5 ug/ml)
[21]
  binding result: no binding (tested: 5 ug/ml)
[22]
  binding result: no binding (tested: 5 ug/ml)
HK68 H3m2-cl9+10+12
  binding result: no binding (tested: 5 ug/ml)
HK68 H3m2-cl9+10+11+13
  binding result: no binding (tested: 5 ug/ml)
[23]
  binding result: no binding (tested: 5 ug/ml)
[24]
  binding result: no binding (tested: 5 ug/ml)
[25]
  binding result: no binding (tested: 5 ug/ml)
[26]
  binding result: no binding (tested: 5 ug/ml)
